Data from paper PMC4103454, “FAN1 Activity on Asymmetric Repair Intermediates Is Mediated by an Atypical Monomeric Virus-type Replication-Repair Nuclease Domain” (Cell Reports, 2014).

B3: tryptic fragment 795-1,012 of hFAN1_360 (domain or fragment, human, UniProt Q9Y2M0 795-1012, looked up)
chain: SVFVMEAGEAADPTTVLCSVEELALAHYRRSGFDQGIHGEGSTFSTLYGLLLWDIIFMDGIPDVFRNACQAFPLDLCTDSFFTSRRPALEARLQLIHDAPEESLRAWVAATWHEQEGRVASLVSWDRFTSLQQAQDLVSCLGGPVLSGVCRHLAADFRHCRGGLPDLVVWNSQSRHFKLVEVKGPNDRLSHKQMIWLAELQKLGAEVEVCHVVAVGAK
notes: human FAN1, protected tryptic fragment identified by mass spectrometry as amino acids 795-1,012; The three fragments are said to correspond broadly to the SAP, TPR and VRR-Nuc homology regions; also called amino acids 795–1,012; source: limited tryptic proteolysis of purified hFAN1_360 (from E. coli)

Experiments:
stNUC = test: EMSA; conditions: EMSA: 1 nM radiolabelled DNA, 20 C, 30 min, binding buffer in Supplemental Information (composition and pH not in material); 2.5% Ficoll-400, 8% native PAGE in …
psNUC = test: EMSA; conditions: stoichiometric binding at 1 nM DNA; 'indicative of a subnanomolar' KD; EMSA: 1 nM radiolabelled DNA, 20 C, 30 min, binding buffer in Supplemental Information (composition and pH not in material); 2.5% Ficoll-400, 8% native PAGE in …
[1] = molecular target: saNUC, VRR-Nuc single-domain protein of Salmonella enteritidis typing phage 3 (Salmonella enteritidis typing phage 3); test: AUC; sedimentation velocity, 50,000 rpm, 277 K, 50 mM Tris/HCl pH 8.0, 300 mM NaCl, 0.50 mM TCEP, interference optics, SEDFIT c(s) and c(M)
[2] = molecular target: stNUC, VRR-Nuc single-domain protein of Streptococcus equi bacteriophage P9 (Streptococcus equi bacteriophage P9); test: as above
[3] = molecular target: B3; test: SEC; S200 gel filtration of a preparative scale tryptic digest of hFAN1_360; SDS-PAGE of fractions across the peak; conditions: both partners purified
[4] = molecular target: T1, tryptic fragment 515-790 of hFAN1_360 (human, UniProt Q9Y2M0 515-790); test: as above; conditions: both partners purified
T1 construct: human FAN1, protected tryptic fragment identified by mass spectrometry as amino acids 515-790; The three fragments are said to correspond broadly to the SAP, TPR and VRR-Nuc homology regions; also called amino acids 515–790; source: limited tryptic proteolysis of purified hFAN1_360 (from E. coli)
T1 sequence (looked up): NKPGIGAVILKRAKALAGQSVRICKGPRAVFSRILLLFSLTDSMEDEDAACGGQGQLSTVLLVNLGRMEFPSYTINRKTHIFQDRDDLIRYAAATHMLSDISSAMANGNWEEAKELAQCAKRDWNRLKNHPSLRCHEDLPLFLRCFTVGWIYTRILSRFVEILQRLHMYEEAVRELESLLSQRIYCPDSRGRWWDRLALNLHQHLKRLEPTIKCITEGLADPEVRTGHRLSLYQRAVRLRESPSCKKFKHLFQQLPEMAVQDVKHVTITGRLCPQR

[5] = molecular target: the molecule itself; test: AUC; sedimentation velocity, 50,000 rpm, 277 K, 50 mM Tris/HCl pH 8.0, 300 mM NaCl, 0.50 mM TCEP, interference optics, SEDFIT c(s) and c(M)
[6] = molecular target: the molecule itself; test: AUC; sedimentation velocity as above, psNUC at concentrations above 70 uM; dimer to tetramer

four-way DNA junction (HJ)
Kd (stNUC): 200 nM
Kd (psNUC): < 1 nM

saNUC, VRR-Nuc single-domain protein of Salmonella enteritidis typing phage 3 (enzyme)
stoichiometry N [1]: 2

stNUC, VRR-Nuc single-domain protein of Streptococcus equi bacteriophage P9 (enzyme)
stoichiometry N [2]: 2

B1: tryptic fragment 360-507 of hFAN1_360 (domain or fragment, human, UniProt Q9Y2M0 360-507, looked up)
chain: GSSCNGPGQTTGHPYYLRSFLVVLKTVLENEDDMLLFDEQEKGIVTKFYQLSATGQKLYVRLFQRKLSWIKMTKLEYEEIALDLTPVIEELTNAGFLQTESELQELSEVLELLSAPELKSLAKTFHLVNPNGQKQQLVDAFLKLAKQR
notes: human FAN1, protected tryptic fragment identified by mass spectrometry as amino acids 360-507; The three fragments are said to correspond broadly to the SAP, TPR and VRR-Nuc homology regions; also called amino acids 360–507; source: limited tryptic proteolysis of purified hFAN1_360 (from E. coli)
binding result [3]: binds
binding result [4]: binds

B2: psNUC, VRR-Nuc single-domain protein of Psychrobacter (enzyme)
chain: RLKGLTEDEVQTVVMNWSKRQKFKGRPLFDYIHHSPNGGKRAAKIGSSGKRYSPEAAKFKRMGVKAGYPDLIIDIARGAYHGLRIEIKKDGNSYATPAQKERIEMLAKEGYCAVVAKGIDNVISVIQQYIKLGDFDGVSQLTADK
notes: psNUC, standalone VRR-Nuc domain protein of Psychrobacter, UniProt A5WF35; Synthetic gene (GeneART) in pGEX 6P-1; The structure was solved by SAD on a selenomethionine derivative; source: E. coli, purified (glutathione-Sepharose, 3C protease cleavage, Superdex gel filtration)
stoichiometry N [5]: 2
stoichiometry N [6]: 4

B3
binding result [4]: binds
